Assay results: the supplement of paper PMC9170038

System: MS2 coat protein
Test: apparent KD of MS2 coat protein; higher = weaker reporter binding
Conditions: Eterna round: R107
Procedure: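 RNA-MaP round R107: designed RNA switches with theophylline, tryptophan, arginine or FMN aptamers are transcribed on-chip within common flanks. They are titrated with SNAP-549-labelled MS2 coat protein in RNA-MaP buffer (100 mM Tris pH 7.5, 80 mM KCl, 4 mM MgCl2), without ligand or with the indicated ligand. Median apparent KD per design.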

[1] = input ligand: theophylline 20 uM
[2] = input ligand: theophylline 2 mM
[3] = input ligand: tryptophan 2.4 mM

Row | Sequence | apparent KD of MS2 coat protein (input ligand: arginine 13.2 mM) [nM] | apparent KD of MS2 coat protein [1] [nM] | apparent KD of MS2 coat protein [2] [nM] | apparent KD of MS2 coat protein (input ligand: none) [nM] | apparent KD of MS2 coat protein [3] [nM]
1 | GUACACUAGUCGGCCGCCACUGUUACAUGAGGAUCACCCAUGUAGGAUCACCCAUGACAUGAGGAUAGGACCGGGACGCAUGAGG [Exclusion Tryptophan B] | 56.8 | 56.1 | 69 |  | 
2 | UAUCGGCACUGAAGGAGCGAGUUGACAAACAUGAGGAUCACCCAUGUUAUGGGUUGUUAAUCUCAGGUAGGUCGCAGUUGUCGCA [Same State Arginine B GF 19] | 221 | 403 | 576 | 334 | 500
3 | AUUUAUUAGACGGCCGCCACUUGAAAGAGACCUCAUAAAUGGGAACAUGAGGAUCACCCAUGUAAGAGGACCGGGUCUAGUAGAU [TryptB-ms2@45] | 55.2 | 497 | 1320 | 567 | 610
4 | GGGUGCGGCACGGCCGCCACUGCGGUGGUGUGACAUGAGGAUCACCCAUGUUGUCAUGCGGCCCUUAGGACCGGGUGGCGUGCCU [#1 Exclusion - Tryptophan B Attempt #15 (HarryS)] | 5.27 | 31.2 | 89.5 | 24.1 | 38
5 | UGUAUGUGAUUUGAUACCAGUUCUGCUGGUAAAACAUGAGGAUCACCCAUGUUACUUUGGGACCCUUGGCAGCAAAUCGCAUACU [SSTheo B #27] | 90 | 119 |  |  | 202
6 | AAGGUGAUCCCAGAUACCAGCUUAACAUGAGGAUCACCCAUGUAACGGACGAAAGUCCGGAGCCCUUGGCAGCUGGGUUGCCAAG [SSTheo B #14] | 102 | 305 | 141 | 266 | 90.9
7 | AUUAAGAAUAUGUAGACGGCGGAGAAGAGACGAGGACCGGUACGGCCGCCACUCGUGUUAGUUAACAUGAGGAUCACCCAUGUUA [#08 Tryptophan A Same State] | 11.9 | 14.1 | 12.6 | 12.1 | 11.8
8 | AUUCAUGGAAACAUGACAUAGGGAUCUAUCCGAGGACCGGUACGGCCGCCACUCGCGUGGAGGCACAUGAGGAUCACCCAUGUUA [SS Tryp A #5] | 71.2 | 384 | 843 |  | 
9 | UCACAUGAGGAUCACCCAUGUGUCAGAGAAGGAGCGGCCGCAAGGCCAGGUAGGUCGCUCGGGUAGCGUGAGGAUCACCCGUGUG [#1 Exclusion - Arginine A Attempt #11 (Inspired by cyborg)] | 31.8 | 175 | 77.5 | 65.8 | 45.1
10 | AGCCCGUGAGCGGCCGCCACUGGAGGCUUUGCGCGACAUGAGGAUCACCCAUGUGUGCCCGGCGUUAGGACCGGGCUCACGUGGU [#1 Same State - Tryptophan B Attempt #20 (HarryS)] | 43.8 | 302 | 288 | 182 | 110
11 | CUAAAUAUAACGGCCGCCACUUACUCAUGAGGUAACAACAUGAGGAUCACCCAUGUUUGAGGAUCAAGGACCGGGUUAUAUUUAG [AstrosSSTry#22] | 26.5 | 38.1 | 30.2 |  | 
12 | UUCAGCUAGUCGGCCGCCACUGCUUGAGGAUCACCCAAGUAGGUCCACACUGCUUCGGCAGUGAGUAGGACCGGGACUAGCUGAG | 10.9 | 14.4 | 10.1 | 10.1 | 25.8
13 | UUUUAAGGGAUCGGUGCUGGUAGCAGAGAUACCAGAGUAAUGAUACUCCCUUGGCAGCUCAGUACAUGAGGAUCACCCAUGUUUU [Exclusion Theophylline A GF25] | 16.7 | 23.2 |  |  | 18.1
14 | UUACGAGGCUAUCCACUUUGAUUUUGUGAUACCAGAAUAAUUUUAUUCCCUUGGCAGCAUGACAUGAGGAUCACCCAUGUGUCUU [SSTheo A #4] | 34.3 | 47.4 |  |  | 42.5
15 | UAUCGAAACUGAAGGAGCGAGAUGACAAACAUGAGGAUCACCCAUGUUAUGGGUUGUUAAUCUCAGGUAGGUCGCAGUGGUAGCA [Same State Arginine B GF 17] | 88.1 | 142 | 245 | 141 | 156
